Test results published in article doi:10.1101/537159 (bioRxiv, 2019).

Columns and labels:
[1] = molecular target: D382Y human β-cardiac myosin 2-hep HMM (human, UniProt P12883 1-855; P08590 1-195; P10916 1-166, D382Y); assay: MST
[2] = molecular target: R719W human β-cardiac myosin 2-hep HMM (human, UniProt P12883 1-855; P08590 1-195; P10916 1-166, R719W); assay: MST
Sequence of R719W human β-cardiac myosin 2-hep HMM (P12883 1-855 R719W, chain 1 of 3): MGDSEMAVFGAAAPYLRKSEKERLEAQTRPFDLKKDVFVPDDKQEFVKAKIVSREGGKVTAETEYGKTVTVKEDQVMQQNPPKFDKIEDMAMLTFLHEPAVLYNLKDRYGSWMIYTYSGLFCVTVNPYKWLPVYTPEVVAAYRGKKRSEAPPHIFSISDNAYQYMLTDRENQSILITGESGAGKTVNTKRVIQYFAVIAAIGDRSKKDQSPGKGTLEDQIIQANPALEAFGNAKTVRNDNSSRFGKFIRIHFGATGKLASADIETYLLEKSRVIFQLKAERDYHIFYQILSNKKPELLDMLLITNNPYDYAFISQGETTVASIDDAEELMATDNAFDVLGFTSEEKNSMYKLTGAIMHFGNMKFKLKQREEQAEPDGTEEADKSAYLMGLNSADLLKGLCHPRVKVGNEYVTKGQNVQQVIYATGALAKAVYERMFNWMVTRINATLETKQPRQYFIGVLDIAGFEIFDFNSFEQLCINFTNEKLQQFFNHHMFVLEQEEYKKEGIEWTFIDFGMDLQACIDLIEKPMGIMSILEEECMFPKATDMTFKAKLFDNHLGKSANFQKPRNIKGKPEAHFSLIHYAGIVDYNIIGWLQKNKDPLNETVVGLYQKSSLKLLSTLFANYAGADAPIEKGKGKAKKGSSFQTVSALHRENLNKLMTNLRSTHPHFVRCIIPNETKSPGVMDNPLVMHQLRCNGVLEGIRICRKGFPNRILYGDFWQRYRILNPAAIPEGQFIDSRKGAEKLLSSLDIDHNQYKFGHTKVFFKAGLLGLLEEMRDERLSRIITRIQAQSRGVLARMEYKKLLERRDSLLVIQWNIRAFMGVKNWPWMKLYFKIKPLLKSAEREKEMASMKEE
Sequence of R719W human β-cardiac myosin 2-hep HMM (P08590 whole entry, chain 2 of 3): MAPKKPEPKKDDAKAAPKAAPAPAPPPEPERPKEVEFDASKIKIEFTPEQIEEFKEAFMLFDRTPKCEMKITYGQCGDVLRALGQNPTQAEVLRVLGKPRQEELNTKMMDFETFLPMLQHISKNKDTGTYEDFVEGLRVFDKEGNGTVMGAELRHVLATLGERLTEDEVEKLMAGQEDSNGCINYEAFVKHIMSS
Sequence of R719W human β-cardiac myosin 2-hep HMM (P10916 whole entry, chain 3 of 3): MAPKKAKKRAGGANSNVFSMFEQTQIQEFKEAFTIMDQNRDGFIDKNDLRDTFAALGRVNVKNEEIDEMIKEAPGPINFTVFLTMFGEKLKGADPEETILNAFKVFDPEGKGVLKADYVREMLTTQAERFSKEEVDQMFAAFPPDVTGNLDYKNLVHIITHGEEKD

Sequence of D382Y human β-cardiac myosin 2-hep HMM (P12883 1-855 D382Y, chain 1 of 3): as the sequence (P12883 1-855 R719W, chain 1 of 3) above, with D382Y, W719R counted along it
Sequence of D382Y human β-cardiac myosin 2-hep HMM (P08590 whole entry, chain 2 of 3): as the sequence (P08590 whole entry, chain 2 of 3) above
Sequence of D382Y human β-cardiac myosin 2-hep HMM (P10916 whole entry, chain 3 of 3): as the sequence (P10916 whole entry, chain 3 of 3) above

B1: proximal S2 (amino acids 839-968) (domain or fragment, human, UniProt P12883 839-968, looked up)
chain: LLKSAEREKEMASMKEEFTRLKEALEKSEARRKELEEKMVSLLQEKNDLQLQVQAEQDNLADAEERCDQLIKNKIQLEAKVKEMNERLEDEEEMNAELTAKKRKLEDECSELKRDIDDLELTLAKVEKEK
fold change of affinity against WT 2-hep HMM [1]: < 2 fold | fold change of affinity against WT 2-hep HMM [2]: < 2 fold
